T1: human MSR1 extracellular domain expressed with a N-terminal nonahistidine tag (His9-hMSR1); R&D Systems, Cat … (human, UniProt P21757 77-451)
T1 construct: extracellular domain; Bought reagent; also called His-hMSR1; 9xHis-hMSR1
T1 sequence: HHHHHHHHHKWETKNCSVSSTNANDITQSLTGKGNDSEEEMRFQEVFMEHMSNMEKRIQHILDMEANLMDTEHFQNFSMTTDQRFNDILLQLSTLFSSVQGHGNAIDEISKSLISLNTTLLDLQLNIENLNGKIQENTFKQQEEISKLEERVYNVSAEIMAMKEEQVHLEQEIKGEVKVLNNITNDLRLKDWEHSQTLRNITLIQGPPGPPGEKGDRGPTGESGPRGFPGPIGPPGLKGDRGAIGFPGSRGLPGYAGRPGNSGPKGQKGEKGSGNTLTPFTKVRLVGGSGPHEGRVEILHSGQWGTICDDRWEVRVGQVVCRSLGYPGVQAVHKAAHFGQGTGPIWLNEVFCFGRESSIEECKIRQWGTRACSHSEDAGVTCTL


target: T1, human MSR1 extracellular domain …; test: SPR Biacore T200, 25 C, antibody captured by anti-human Fc, His9-hMSR1 injected;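 also: running buffer HBS-ET pH 7.4, rates from sensorgrams fitted to a 1:1 model including mass transport limitation, KD and half-life derived from the kinetic constants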
Protocol: All binding studies were performed in 10 mM HEPES, 300 mM NaCl, 3 mM EDTA, and 0.05% v/v Surfactant Tween-20, pH 7.4 (HBS-ET) running buffer at 25° C.
The association rate (kₐ) and dissociation rate (kd) were determined by fitting the real-time binding sensorgrams to a 1:1 binding model with mass transport limitation using Scrubber 2.0c curve-fitting software. Binding dissociation equilibrium constant (KD) and dissociative half-life (t½) were calculated from the kinetic rates as:

Row | Binder | Kd [nM] | koff [s⁻¹] | kon [M⁻¹ s⁻¹] | t½ [min]
1 | H1H27734P-N297Q (antibody, human IgG1, V domains shown, human IgG1 Fc with N297Q (EU)) VH: EVQLVESRGGLVQPGGSLRLSCAASGFTFSSYAMSWVRQAPGKGLEWVSAISGSGGSTFYADSVKGRFTISRDNSKNTVYLQMNSLRAEDTAVYYCAKALVLRFLEWLGDYWGQGTLVTVSS VL: DIQMTQSPSTLSASVGDRVTITCRASQSISSWLAWFQQKPGKAPKLLIYKASSLESGVPSRFSGSGSGTEFTLTISSLQPDDFATYYCQQYKSYWTFGQGTKVEIKR | 7.72 | 0.000596 | 77200 | 19.4
2 | H1H27734P-N297Q-LP1 (antibody, human IgG1, V domains shown, LXR agonist linker-payload LP1 clicked to azido-PEG3-amine on Q295 and Q297 (EU) of the heavy chain constant region, antibody-drug conjugate; human IgG1 Fc with N297Q (EU); also called H1H27734P-LP1) VH: EVQLVESRGGLVQPGGSLRLSCAASGFTFSSYAMSWVRQAPGKGLEWVSAISGSGGSTFYADSVKGRFTISRDNSKNTVYLQMNSLRAEDTAVYYCAKALVLRFLEWLGDYWGQGTLVTVSS VL: DIQMTQSPSTLSASVGDRVTITCRASQSISSWLAWFQQKPGKAPKLLIYKASSLESGVPSRFSGSGSGTEFTLTISSLQPDDFATYYCQQYKSYWTFGQGTKVEIKR | 6.49 | 0.000449 | 69300 | 25.7
3 | H1H27739P-N297Q-LP1 (antibody, human IgG1, V domains shown, LXR agonist linker-payload LP1 clicked to azido-PEG3-amine on Q295 and Q297 (EU) of the heavy chain constant region, antibody-drug conjugate; human IgG1 Fc with N297Q (EU); also called H1H27739P-LP1) VH: EVQLVESGGGLVQPGGSLRLSCTASGFTFSSYAMSWVRQAPGKGLEWVSAISGTGSSTYFTDSVKGRFAISRDNSKNTLYLQMNSLRAEDTAVYYCAKDGEWLSTVTLFDYWGQGTLVTVSS VL: EIVMTQSPATLSVSPGERATLSCRASQSVSSNLAWYQQKPGQAPRLLIYGASTRATGIPARFSGSGSGTDFTLTISSLQSEDFALYYCQQYFIWPPHPTFGPGTKVDIKR | 8.14 | 0.000722 | 88800 | 16
4 | H1H27729P-N297Q (antibody, human IgG1, V domains shown, human IgG1 Fc with N297Q (EU)) VH: QVQLVESGGGLVKPGGSLRLSCAASGFIFSDYYMSWIRQAPGKGLEWVSYISSSGTTIYGDSVKGRFTMSRDNAKNSLYLQMNSLRAEDTAVYYCARNYALFDYWGQGTLVTVSS VL: DIQMTQSPSSLSASVGDRVTITCQASQDISKYLNWYQQKPGKAPKLLIYYTSNLETGVPSRFSGSGSGTDFTFTISSLQPEDIATYYCHQSDYLPFTFGPGTKVDIKR | 8.67 | 0.000906 | 105000 | 12.8
5 | H1H27729P-N297Q-LP1 (antibody, human IgG1, V domains shown, LXR agonist linker-payload LP1 clicked to azido-PEG3-amine on Q295 and Q297 (EU) of the heavy chain constant region, antibody-drug conjugate; human IgG1 Fc with N297Q (EU); also called H1H27729P-LP1) VH: QVQLVESGGGLVKPGGSLRLSCAASGFIFSDYYMSWIRQAPGKGLEWVSYISSSGTTIYGDSVKGRFTMSRDNAKNSLYLQMNSLRAEDTAVYYCARNYALFDYWGQGTLVTVSS VL: DIQMTQSPSSLSASVGDRVTITCQASQDISKYLNWYQQKPGKAPKLLIYYTSNLETGVPSRFSGSGSGTDFTFTISSLQPEDIATYYCHQSDYLPFTFGPGTKVDIKR | 13.1 | 0.000718 | 54700 | 16.1

Binders with a lower Kd, results first:

Row | Kd [nM] | koff [s⁻¹] | kon [M⁻¹ s⁻¹] | t½ [min] | Binder
6 | ≤ 0.0855 | ≤ 1e-05 | 117000 | 1160 | H1H27731P-N297Q (antibody, V domains shown, human IgG1 Fc with N297Q (EU)) VH: QLQLQESGPGLVKPSETLSLTCTVSGGSISRISYYWGWIRQPPGKGLEWIGSIYDSGSTYYNPSLKSRVTISIDTSKNQFSLKLSSVTAADTAVYYCVRYSSSSAFAFDYWGQGTLVTVSS VL: DIQMTQSPSSVSASVGDRVTITCRASQGISSWLAWYQQKPGKAPKLLIYAASSLQSGVPSRFSGSGSGTDFTLTISSLQPEDFATYYCQQANSFPFTFGPGTKVDIKR
7 | 4.68 | 0.000555 | 119000 | 20.8 | H1H27739P-N297Q (antibody, human IgG1, V domains shown, human IgG1 Fc with N297Q (EU)) VH: EVQLVESGGGLVQPGGSLRLSCTASGFTFSSYAMSWVRQAPGKGLEWVSAISGTGSSTYFTDSVKGRFAISRDNSKNTLYLQMNSLRAEDTAVYYCAKDGEWLSTVTLFDYWGQGTLVTVSS VL: EIVMTQSPATLSVSPGERATLSCRASQSVSSNLAWYQQKPGQAPRLLIYGASTRATGIPARFSGSGSGTDFTLTISSLQSEDFALYYCQQYFIWPPHPTFGPGTKVDIKR
